# ± gives the standard error. For some of these results: This sample holds only a part of the variants without activity.
# B1: glmS ribozyme (parent)
# chain: AUAAAAGCGCCAGAACUACAGAAAUGUAGUUGACGAGGAGGAGGUUUAUCGAAUUUUCGGCGGAUGCCUCCAAA
# Columns and labels:
# Details in all cases: with glucosamine-6-phosphate
# glucosamine-6-phosphate [1] = variants of: B1; assay: kcat; higher = faster cleavage; RNA array
# How it was run: (§1)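 Glucosamine-6-phosphate in HEPES/KCl/Mg(OAc)2 buffer, at 40 μM to 10 mM, was flowed over barcoded ribozyme variants transcribed in situ by E. coli RNA polymerase on sequenced MiSeq chips. Tracking was through a hybridised Cy3 probe at 37 °C. kobs, kcat and KM came from exponential decay fits and weighted Michaelis–Menten fits of normalised per-tile medians.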
# glucosamine-6-phosphate [2] = variants of: B1; assay: KM; higher = weaker cofactor use; RNA array
# How it was run: as §1
# glucosamine-6-phosphate [3] = variants of: B1; assay: self-cleavage kobs at 40 uM GlcN6P; higher = faster cleavage; RNA array
# How it was run: as §1
# glucosamine-6-phosphate [4] = variants of: B1; assay: self-cleavage kobs at 2500 uM GlcN6P; higher = faster cleavage; RNA array
# How it was run: as §1
# glucosamine-6-phosphate [5] = variants of: B1; assay: self-cleavage kobs at 10000 uM GlcN6P; higher = faster cleavage; RNA array
# How it was run: as §1
# glucosamine-6-phosphate [6] = variants of: B1; assay: self-cleavage kobs at 160 uM GlcN6P; higher = faster cleavage; RNA array
# How it was run: as §1
# glucosamine-6-phosphate [7] = variants of: B1; assay: self-cleavage kobs at 640 uM GlcN6P; higher = faster cleavage; RNA array
# How it was run: as §1
Variant,kcat (glucosamine-6-phosphate [1]) [s⁻¹],KM (glucosamine-6-phosphate [2]) [µM],self-cleavage kobs at 40 uM GlcN6P (glucosamine-6-phosphate [3]) [s⁻¹],self-cleavage kobs at 2500 uM GlcN6P (glucosamine-6-phosphate [4]) [s⁻¹],self-cleavage kobs at 10000 uM GlcN6P (glucosamine-6-phosphate [5]) [s⁻¹],self-cleavage kobs at 160 uM GlcN6P (glucosamine-6-phosphate [6]) [s⁻¹],self-cleavage kobs at 640 uM GlcN6P (glucosamine-6-phosphate [7]) [s⁻¹]
G40A C70U,0.000518 ± 0.0001,165 ± 58,0.000102 ± 1.8e-05,0.000417 ± 0.00011,0.000752 ± 0.00019,,
U31G G44U,0.000237 ± 6.3e-05,8740 ± 3600,,4.98e-05 ± 1.3e-05,0.000129 ± 3e-05,,
A33G G35A G37A C71U,1.55e-05 ± 4.5e-06,,,,,,
G38A U65A,< 1e-05,,,,,,
A39C A64U,1.4e-05 ± 2.1e-06,,,,,,
G37A A39U,0.00167 ± 0.00028,3280 ± 870,,0.000838 ± 9.2e-05,0.00116 ± 0.00015,6.13e-05 ± 1.5e-05,0.00028 ± 4e-05
G38A U56A,< 1e-05,52.5 ± 11,,,< 1e-05,,< 1e-05
G32A G66U,0.000161 ± 4.6e-05,,,5.52e-05 ± 1.1e-05,0.000118 ± 1.6e-05,,4.96e-05 ± 1.7e-05
G32A G66A,0.00312 ± 0.0006,6290 ± 1700,,0.000911 ± 0.00018,0.0019 ± 0.00044,,0.000269 ± 6.9e-05
G35A U49C,< 1e-05,,,,< 1e-05,,< 1e-05
A39C A48G U55C,6.53e-05 ± 4.8e-06,,< 1e-05,,2.91e-05 ± 1.2e-05,,
A39U C68U,0.00901 ± 0.0018,1340 ± 420,0.000444 ± 8.6e-05,0.00636 ± 0.00063,0.00694 ± 0.0011,0.000829 ± 9e-05,0.00309 ± 0.00026
G37U A64C,< 1e-05,,< 1e-05,,,,
A39C U57G,< 1e-05,,,,,< 1e-05,
U31C U55A,0.00809 ± 0.0017,3270 ± 1100,0.000152 ± 2.3e-05,0.00333 ± 0.00051,0.00623 ± 0.00059,0.000289 ± 6.8e-05,0.00126 ± 0.00017
G38A A52C,1.04e-05 ± 2.3e-07,129 ± 16,,,< 1e-05,,< 1e-05
A39U U46G,0.00673 ± 0.0011,4400 ± 920,5.61e-05 ± 1.4e-05,0.0023 ± 0.00049,0.00476 ± 0.0014,0.000227 ± 6.1e-05,0.000968 ± 0.00018

Variant,kcat (glucosamine-6-phosphate [1]) [s⁻¹],KM (glucosamine-6-phosphate [2]) [µM],self-cleavage kobs at 40 uM GlcN6P (glucosamine-6-phosphate [3]) [s⁻¹],self-cleavage kobs at 2500 uM GlcN6P (glucosamine-6-phosphate [4]) [s⁻¹],self-cleavage kobs at 10000 uM GlcN6P (glucosamine-6-phosphate [5]) [s⁻¹],self-cleavage kobs at 160 uM GlcN6P (glucosamine-6-phosphate [6]) [s⁻¹],self-cleavage kobs at 640 uM GlcN6P (glucosamine-6-phosphate [7]) [s⁻¹]
G32U C67G,0.000119 ± 1.3e-05,1520 ± 570,,6.69e-05 ± 1.2e-05,0.000107 ± 1.2e-05,,4.87e-05 ± 1.6e-05
A33C U55C,< 1e-05,,< 1e-05,,,< 1e-05,< 1e-05
G37C C68U,1.59e-05 ± 1.1e-06,,< 1e-05,,,,
G38C U47A,< 1e-05,,< 1e-05,< 1e-05,< 1e-05,< 1e-05,
A39U A53C,0.00528 ± 0.0015,2890 ± 1100,9.69e-05 ± 1.1e-05,0.00228 ± 0.00027,0.00454 ± 0.00047,0.000314 ± 4.2e-05,0.000759 ± 8.9e-05
A39U A53G,0.0183 ± 0.0065,1410 ± 620,0.000648 ± 6.7e-05,0.0187 ± 0.0064,0.0166 ± 0.0029,0.00141 ± 0.00023,0.0052 ± 0.00085
G32U A52G,8.92e-05 ± 4.7e-06,3490 ± 570,,3.86e-05 ± 7.8e-06,6.6e-05 ± 5.2e-06,,
G32U C58U,0.000916 ± 0.0003,,,0.000245 ± 3e-05,0.000655 ± 6.4e-05,6.06e-05 ± 1.7e-05,0.000118 ± 1.5e-05
G32U C58A,0.00151 ± 0.00022,5030 ± 1000,,0.000495 ± 4.5e-05,0.00102 ± 8.8e-05,6.77e-05 ± 1.3e-05,0.000164 ± 1.4e-05
G37A U47G U55G,0.000459 ± 0.00013,,,0.000183 ± 2.9e-05,0.000412 ± 6.3e-05,,0.000101 ± 1.6e-05
A39U G60A,2.79e-05 ± 2e-06,5820 ± 1100,,,,< 1e-05,
G38U U55G,< 1e-05,,,,,< 1e-05,
A39U G40C,0.00382 ± 0.00081,1850 ± 560,0.00011 ± 1.5e-05,0.00244 ± 0.00039,0.00324 ± 0.00043,0.000253 ± 4.7e-05,0.00089 ± 0.0001
A39U G40U,0.00237 ± 0.00036,997 ± 220,9.94e-05 ± 1.5e-05,0.00163 ± 0.00025,0.00209 ± 0.00044,0.000285 ± 4.1e-05,0.00112 ± 0.00016
A36U G59A G63U C71U,< 1e-05,,,< 1e-05,,,
C34U G63C,< 1e-05,,,< 1e-05,,,< 1e-05
G37A U46A,0.000136 ± 4.3e-06,2840 ± 210,< 1e-05,6.45e-05 ± 7.8e-06,0.000105 ± 1.1e-05,,2.37e-05 ± 7.5e-06
